Among the data in patent US6872803 are Percentage inhibition (%) and IC50 values, retold here.

[ ]: non-standard residue; d: D form. Hyp = O=C(O)[C@@H]1C[C@@H](O)CN1; NMeI = CC[C@H](C)[C@H](NC)C(=O)O

Test [1] addresses BK receptor derived from guinea pig ilea (guinea pig). Description: inhibition of 3H-BK (200 pM) binding to guinea pig ileum membrane fraction; test compound at 10^-8 M.
Test [2] has the same target. Description: inhibition of 3H-BK (200 pM) binding to guinea pig ileum membrane fraction; test compound at 10^-7 M.
Test [3] has as its target Bovine lung-derived ANP receptor (bovine). Description: displacement of 125I-rat ANP from bovine lung membrane fraction, filter binding. In general terms: In a radioligand displacement assay an active substance lowers the binding of a labelled ligand.

Bovine lung-derived ANP receptor (bovine), sequence (P10730 42-537): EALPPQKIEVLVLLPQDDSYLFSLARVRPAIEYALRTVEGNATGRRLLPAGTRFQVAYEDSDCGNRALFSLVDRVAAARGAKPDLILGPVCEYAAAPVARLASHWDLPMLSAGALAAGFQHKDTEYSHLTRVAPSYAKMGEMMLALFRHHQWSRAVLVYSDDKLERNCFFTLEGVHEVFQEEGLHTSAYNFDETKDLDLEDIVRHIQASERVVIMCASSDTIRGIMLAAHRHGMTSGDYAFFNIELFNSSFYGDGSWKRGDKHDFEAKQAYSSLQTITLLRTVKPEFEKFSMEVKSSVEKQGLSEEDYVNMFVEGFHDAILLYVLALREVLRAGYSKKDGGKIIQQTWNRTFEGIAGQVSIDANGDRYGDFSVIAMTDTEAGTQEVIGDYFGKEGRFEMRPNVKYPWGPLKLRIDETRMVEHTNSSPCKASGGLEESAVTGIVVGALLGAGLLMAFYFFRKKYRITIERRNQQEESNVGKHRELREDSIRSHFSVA
BK receptor derived from guinea pig ilea (guinea pig), sequence (O70526 whole entry): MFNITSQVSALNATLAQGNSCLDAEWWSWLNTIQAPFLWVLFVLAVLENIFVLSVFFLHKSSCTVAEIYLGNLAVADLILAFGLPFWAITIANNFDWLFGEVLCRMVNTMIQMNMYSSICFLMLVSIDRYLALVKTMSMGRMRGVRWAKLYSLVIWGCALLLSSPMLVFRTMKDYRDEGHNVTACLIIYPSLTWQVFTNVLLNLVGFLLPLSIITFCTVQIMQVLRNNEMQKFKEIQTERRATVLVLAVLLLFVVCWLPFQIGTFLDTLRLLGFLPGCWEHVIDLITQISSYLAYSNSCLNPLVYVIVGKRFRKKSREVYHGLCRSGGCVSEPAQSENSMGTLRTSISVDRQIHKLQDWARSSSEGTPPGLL

B1: Compound (m), H-D-Arg-Arg-Pro-Hyp-Gly-Phe-Ser-D-Phe-Leu-Arg-OH (peptide)
peptide: H-[dR]RP[Hyp]GFS[dF]LR-OH
SMILES: CC(C)C[C@H](NC(=O)[C@@H](Cc1ccccc1)NC(=O)[C@H](CO)NC(=O)[C@H](Cc1ccccc1)NC(=O)CNC(=O)[C@@H]1C[C@@H](O)CN1C(=O)[C@@H]1CCCN1C(=O)[C@H](CCCNC(=N)N)NC(=O)[C@H](N)CCCNC(=N)N)C(=O)N[C@@H](CCCNC(=N)N)C(=O)O
As to B1, the Percentage inhibition (%) in test [1] worked out at 20%; in test [2], 68%.

B2: Compound (k), H-Phe-Gly-Gly-Arg-(N-Me)Ile-Asp-Arg-Ile-NH2 (peptide)
peptide: H-FGGR[NMeI]DRI-NH2
SMILES: CC[C@H](C)[C@H](NC(=O)[C@H](CCCNC(=N)N)NC(=O)[C@H](CC(=O)O)NC(=O)[C@H]([C@@H](C)CC)N(C)C(=O)[C@H](CCCNC(=N)N)NC(=O)CNC(=O)CNC(=O)[C@@H](N)Cc1ccccc1)C(N)=O
One may read the IC50 as the concentration that inhibits the measured activity by half. Low readings indicate greater potency, high ones weaker potency. Regarding B2, the IC50 in test [3] was found to be 21 nM.

B3: Compound (j), H-Phe-Gly-Gly-D-Arg-Ile-Asp-D-Arg-Ile-NH2 (peptide)
peptide: H-FGG[dR]ID[dR]I-NH2
SMILES: CC[C@H](C)[C@H](NC(=O)[C@@H](CCCNC(=N)N)NC(=O)[C@H](CC(=O)O)NC(=O)[C@@H](NC(=O)[C@@H](CCCNC(=N)N)NC(=O)CNC(=O)CNC(=O)[C@@H](N)Cc1ccccc1)[C@@H](C)CC)C(N)=O
Turning to B3, the IC50 in test [3] stood at 5400 nM.
